In US20180038857A1 (published 2018):
Bridge positions count the residues as written; N and C are the ends. * marks the point of attachment. Biotin = O=C1N[C@H]2[C@H](CS[C@H]2CCCCC(=O)*)N1

Columns and labels:
Test in all cases: cell depletion on chemokine-streptavidin Sepharose column, flow cytometry for CCR1, 3 and 5-expressing cells
hCCR3 = target: T1, hCCR3 (human, UniProt P51677 1-355)
T1 construct: whole, on cells
T1 sequence (looked up): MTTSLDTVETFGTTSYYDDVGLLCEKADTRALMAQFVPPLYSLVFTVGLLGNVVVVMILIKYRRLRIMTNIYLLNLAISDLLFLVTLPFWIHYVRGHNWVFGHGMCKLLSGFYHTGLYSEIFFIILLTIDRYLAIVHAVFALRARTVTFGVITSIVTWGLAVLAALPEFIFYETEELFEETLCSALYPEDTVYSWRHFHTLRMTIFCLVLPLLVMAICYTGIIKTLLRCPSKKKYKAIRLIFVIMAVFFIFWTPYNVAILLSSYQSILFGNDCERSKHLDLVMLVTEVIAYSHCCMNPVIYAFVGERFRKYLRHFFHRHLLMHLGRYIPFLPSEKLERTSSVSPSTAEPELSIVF
Protocol: (§1) To investigate the ability to eliminate CCR1, 3 and 5-expressing cells, in vitro tests have been performed on the biotinylated RANTES coupled matrix. Blood was collected from blood donors and passed through the column device containing biotinylated RANTES coupled matrix. Blood samples were taken before and after column passage and analyzed by flow cytometry (FACS) for the depletion of CCR1, 3 and 5-expressing cells.
(§2) Depletion tests were performed on blood from a healthy donor.

hCCR5 = target: T2, hCCR5 (human, UniProt P51681 1-352)
T2 construct: whole, on cells
Protocol: as §1, §2

CCR1 = target: T3, CCR1 (human, UniProt P32246 1-355)
T3 construct: whole, on cells; Endogenous receptor on blood cells in the RANTES depletion test
T3 sequence (looked up): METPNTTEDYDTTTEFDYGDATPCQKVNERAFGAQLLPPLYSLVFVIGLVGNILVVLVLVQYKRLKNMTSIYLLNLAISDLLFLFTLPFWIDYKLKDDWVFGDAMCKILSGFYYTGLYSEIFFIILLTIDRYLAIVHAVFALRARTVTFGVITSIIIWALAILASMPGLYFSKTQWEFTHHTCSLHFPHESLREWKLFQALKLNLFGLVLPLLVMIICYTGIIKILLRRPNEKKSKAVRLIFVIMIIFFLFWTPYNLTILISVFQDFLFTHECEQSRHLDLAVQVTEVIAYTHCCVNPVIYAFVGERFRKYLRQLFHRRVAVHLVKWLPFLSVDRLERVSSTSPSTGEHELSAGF
Protocol: as §1, §2

Measured: reduction of chemokine receptor-expressing cells by the column

T2 sequence (P51681 whole entry): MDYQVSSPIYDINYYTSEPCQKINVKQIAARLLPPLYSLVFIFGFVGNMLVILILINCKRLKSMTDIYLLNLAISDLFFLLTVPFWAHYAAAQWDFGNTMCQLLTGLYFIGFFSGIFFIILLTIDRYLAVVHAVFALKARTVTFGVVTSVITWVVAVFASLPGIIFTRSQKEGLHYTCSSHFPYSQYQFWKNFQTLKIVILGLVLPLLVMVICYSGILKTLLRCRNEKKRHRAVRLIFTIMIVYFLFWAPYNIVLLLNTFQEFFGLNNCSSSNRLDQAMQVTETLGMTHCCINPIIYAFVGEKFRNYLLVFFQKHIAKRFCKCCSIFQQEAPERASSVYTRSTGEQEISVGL

B1: biotinRANTES (CCL5): RANTES derivatised at the ε-amino side chain functionality of Lys(67) with Biotin (ligand)
chain: H-SPYSSDTTPCCFAYIARPLPRAHIKEYFYTSGKCSNPAVVFVTRKNRQVCANPEKKWVREYINSLEK(Biotin)S-OH
modifications: disulfide 10-34, 11-50; also: TFA salt
notes: It is treated here as the same molecule; also called biotinylated RANTES
~20%: all assays above
